Source: patent US20170298330A1

Target: nMagHigh1-C714 (fused polypeptide of nMagHigh1 and a C-terminal side fragment of Cas9)
Assay: cell-based or functional assay

With “N713-pMag (fused polypeptide of an N-terminal side fragment of Cas9 and pMag)” the frequency of HDR (integration of a HindIII site) at human EMX1 locus, RFLP analysis, blue light was 7.2%, the indel frequency at EMX1 locus after 0, 1, 3 and 6 hours of blue light, T7E1 assay was < 1% and the light-dependent Cas9 activity, luciferase plasmid HDR assay in HEK293T cells was 16.4 times.
